The values below come from publication PMC4208029 (Scientific Reports, 2014).

The target in this experiment is T1, human full-length glucose transporter GLUT-1 (human, UniProt P11166 1-492).
T1 sequence (looked up): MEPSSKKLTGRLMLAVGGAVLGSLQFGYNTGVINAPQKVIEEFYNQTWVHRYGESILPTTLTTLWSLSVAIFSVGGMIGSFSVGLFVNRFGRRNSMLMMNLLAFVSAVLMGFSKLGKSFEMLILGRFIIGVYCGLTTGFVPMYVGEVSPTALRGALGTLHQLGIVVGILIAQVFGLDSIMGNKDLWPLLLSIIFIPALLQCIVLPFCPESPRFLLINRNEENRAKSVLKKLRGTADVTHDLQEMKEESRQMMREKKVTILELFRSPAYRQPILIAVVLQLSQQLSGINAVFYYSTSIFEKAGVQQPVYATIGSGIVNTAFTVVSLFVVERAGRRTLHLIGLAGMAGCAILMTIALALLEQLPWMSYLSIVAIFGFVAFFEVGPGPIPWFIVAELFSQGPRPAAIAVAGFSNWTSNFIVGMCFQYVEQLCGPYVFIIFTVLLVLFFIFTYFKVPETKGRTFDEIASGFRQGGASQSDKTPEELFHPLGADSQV
Put plainly: SPR. In general terms: SPR reads the build-up and loss of mass on a sensor chip optically.

B1: Nb-GLUT-1 (VHH)
VHH: QVQLLESGGGLVQPGGSLRLSCAASGFTFSSYAMSWVRQAPGKGLEWVSTITAKGRQTYYADSVKGRFTISRDNSKNTLYLQMNSLRAEDTAVYYCATGPMYQPQFGSWGQGTLVTVSS
In general, Kd refers to the free concentration of one partner at which half of the binding sites on the other are occupied at equilibrium, for simple one-to-one binding. A higher Kd goes with a looser complex. In general, koff refers to a measure of how fast the partners let go of each other. Broadly, the kon is the rate constant with which the complex forms. Lower therefore signals slow association. B1 showed a Kd of 22.3 nM, an off-rate (koff) of 0.0016 s⁻¹ and a kon of 120000 M⁻¹ s⁻¹.
